Source: patent US20240336672A1 (INSTITUT PASTEUR, published 2024)
“And” between values parts separate entries of the source, which are not always exact repeats. Equal values may be shown once.

T1: CoV-OC43 Spike ectodomain (OC43-CoV, UniProt P36334 14-1263)
T1 chain: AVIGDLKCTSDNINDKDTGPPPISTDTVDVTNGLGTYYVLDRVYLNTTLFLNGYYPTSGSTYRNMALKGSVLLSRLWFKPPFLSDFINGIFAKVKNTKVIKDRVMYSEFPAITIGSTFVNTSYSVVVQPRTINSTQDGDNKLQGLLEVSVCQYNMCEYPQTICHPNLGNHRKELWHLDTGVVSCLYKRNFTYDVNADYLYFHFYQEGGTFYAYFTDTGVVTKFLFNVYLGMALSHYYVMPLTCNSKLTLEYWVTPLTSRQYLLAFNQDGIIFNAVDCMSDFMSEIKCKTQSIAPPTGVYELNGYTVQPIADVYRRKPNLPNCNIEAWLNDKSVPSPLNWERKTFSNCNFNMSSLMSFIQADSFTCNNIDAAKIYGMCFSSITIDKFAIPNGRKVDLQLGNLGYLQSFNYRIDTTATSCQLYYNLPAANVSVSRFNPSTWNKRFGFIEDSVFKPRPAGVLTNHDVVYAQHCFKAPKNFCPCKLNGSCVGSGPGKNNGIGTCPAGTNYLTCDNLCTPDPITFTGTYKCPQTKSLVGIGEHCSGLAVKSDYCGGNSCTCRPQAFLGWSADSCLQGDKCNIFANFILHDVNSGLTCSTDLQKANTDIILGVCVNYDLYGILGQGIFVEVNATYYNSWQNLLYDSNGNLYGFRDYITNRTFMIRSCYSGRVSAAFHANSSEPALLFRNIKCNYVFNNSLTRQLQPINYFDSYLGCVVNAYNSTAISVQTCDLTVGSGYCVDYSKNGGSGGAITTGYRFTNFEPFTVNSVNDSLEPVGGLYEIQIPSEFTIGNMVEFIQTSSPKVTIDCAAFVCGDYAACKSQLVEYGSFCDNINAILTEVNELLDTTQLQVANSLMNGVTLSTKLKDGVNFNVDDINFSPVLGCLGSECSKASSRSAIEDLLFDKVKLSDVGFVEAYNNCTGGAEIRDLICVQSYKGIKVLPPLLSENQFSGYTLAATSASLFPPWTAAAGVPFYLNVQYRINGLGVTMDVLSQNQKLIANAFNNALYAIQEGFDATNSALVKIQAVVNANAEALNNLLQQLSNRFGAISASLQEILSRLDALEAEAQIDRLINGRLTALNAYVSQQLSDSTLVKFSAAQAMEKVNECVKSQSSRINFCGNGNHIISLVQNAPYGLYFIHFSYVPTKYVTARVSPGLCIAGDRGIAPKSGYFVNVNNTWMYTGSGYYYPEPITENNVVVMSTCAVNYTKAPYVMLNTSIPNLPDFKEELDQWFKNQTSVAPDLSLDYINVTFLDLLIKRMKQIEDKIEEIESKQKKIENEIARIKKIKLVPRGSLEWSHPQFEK


Tests used:
[1] = target: SARS-CoV-2 spike, Delta+ variant, on pseudotyped particles (SARS-CoV-2); test: cell-based or functional assay
[2] = target: SARS-CoV-2 spike, Omicron BA.2 variant, on virus (SARS-CoV-2); test: cell-based or functional assay
[3] = target: T2, SARS-CoV-2 spike, Delta variant (B.1.617.2), on virus or pseudotyped particles (SARS-CoV-2); test: cell-based or functional assay
[4] = target: SARS-CoV-2 spike, Beta variant (B.1.351), on virus or pseudotyped particles (SARS-CoV-2); test: cell-based or functional assay
[5] = target: SARS-CoV-2 spike, Gamma variant (P.1), on virus or pseudotyped particles (SARS-CoV-2); test: cell-based or functional assay
[6] = target: SARS-CoV-2 spike, Omicron BA.1 variant, on virus (SARS-CoV-2); test: cell-based or functional assay
[7] = target: SARS-CoV-2 spike, Alpha variant (B.1.1.7), on virus or pseudotyped particles (SARS-CoV-2); test: cell-based or functional assay
[8] = target: T2, SARS-CoV-2 spike, Delta variant …; test: cell-based or functional assay; remark: listed apart in the source
[9] = target: SARS-CoV-2 spike, Omicron BA.1 variant, on virus (SARS-CoV-2); test: cell-based or functional assay; remark: listed apart in the source
[10] = target: T2, SARS-CoV-2 spike, Delta variant …; test: cell-based or functional assay; remark: listed apart in the source
[11] = target: T1, CoV-OC43 Spike ectodomain; test: ELISA, coated spike ectodomain

| Binder | Pseudoneutralization IC50 [1] | Pseudoneutralization IC90 [1] | S-Fuse neutralization IC50 [2] | S-Fuse neutralization IC90 [2] | Pseudoneutralization IC50 [3] | Pseudoneutralization IC90 [3] | S-Fuse neutralization IC50 [3] | S-Fuse neutralization IC90 [3] | Pseudoneutralization IC50 [4] | Pseudoneutralization IC90 [4] | S-Fuse neutralization IC50 [4] | S-Fuse neutralization IC90 [4] | Pseudoneutralization IC50 [5] | Pseudoneutralization IC90 [5] | S-Fuse neutralization IC90 [5] | S-Fuse neutralization IC50 [6] | S-Fuse neutralization IC90 [6] | Pseudoneutralization IC50 [7] | Pseudoneutralization IC90 [7] | S-Fuse neutralization IC50 [7] | other results |
| --- | --- | --- | --- | --- | --- | --- | --- | --- | --- | --- | --- | --- | --- | --- | --- | --- | --- | --- | --- | --- | --- |
| Cv2.1169 (recombinant human IgG1) (antibody, also called Cv2.1169 IgG) heavy: QVQLVQSGPEVKKPGTSVKVSCKASGFTFTTSAVQWVRQARGQRLEWIGWIVVGSGNTNYAQKFQERVTITRDMSTTTAYMELSSLRSEDTAVYYCAAPYCSGGTCLDGFDIWGQGTMVTVSSASTKGPSVFPLAPSSKSTSGGTAALGCLVKDYFPEPVTVSWNSGALTSGVHTFPAVLQSSGLYSLSSVVTVPSSSLGTQTYICNVNHKPSNTKVDKKVEPKSCDKTHTCPPCPAPELLGGPSVFLFPPKPKDTLMISRTPEVTCVVVDVSHEDPEVKFNWYVDGVEVHNAKTKPREEQYNSTYRVVSVLTVLHQDWLNGKEYKCKVSNKALPAPIEKTISKAKQPREPQVYTLPPSRDELTKNQVSLTCLVKGFYPSDIAVEWESNGQPENNYKTTPPVLDSDGSFFLYSKLTVDKSRWQQGNVFSCSVMHEALHNHYTQKSLSLSPGK light: not shown | 0.0036 µg/mL | 0.0149 µg/mL | 0.332 µg/mL | 9.69 µg/mL | 0.008 µg/mL | 0.0341 µg/mL | 0.0021 µg/mL | 0.0064 µg/mL | 0.0142 µg/mL | 0.0342 µg/mL | 0.0023 µg/mL | 0.0072 µg/mL | 0.0096 µg/mL | 0.0292 µg/mL | 0.0086 µg/mL | 0.265 µg/mL | 7.59 µg/mL | 0.0055 µg/mL | 0.024 µg/mL | 0.0016 µg/mL | S-Fuse neutralization IC50 [5]: 0.0016 µg/mL; S-Fuse neutralization IC90 [7]: 0.004 µg/mL; S-Fuse IC50 [8]: 0.00446 µg/mL; S-Fuse IC50 [9]: 0.253 µg/mL and 0.212 µg/mL; neutralization IC50 [9]: ~0.25 µg/mL; IC50, S-Fuse neutralisation [10]: 0.0025 µg/mL; binding result [11]: no binding |
| Cv2.3194 (recombinant human IgG1) (antibody, V domains shown) VH: EVQLVESGGGLIQPGGSLRLSCAASGITVTSNYMSWVRQAPGKGLEWVSVIYPGGSTFYADSVKGRFTISRDNSKNTLYLQMNSLRAEDTAVYYCARDLVVYGMDVWGQGTTVTVSS VL: EIVLTQSPGTLSLSPGERATLSCRASQSVSSSYLAWYQQKPGQAPRLLIYGASSRATGIPGRFSGSGSGTDFTLTISRLEPEDFAIYYCQQGVTFGGGTKVEIKR | 0.0206 µg/mL | 0.089 µg/mL | 0.0405 µg/mL | 0.582 µg/mL | 0.0544 µg/mL | 0.115 µg/mL | 0.0066 µg/mL | 0.0547 µg/mL | 0.0343 µg/mL | 0.119 µg/mL | 0.0052 µg/mL | 0.02 µg/mL | 0.0099 µg/mL | 0.0561 µg/mL | 0.0056 µg/mL | 0.0242 µg/mL | 0.709 µg/mL | 0.0347 µg/mL | 0.132 µg/mL | 0.0043 µg/mL | S-Fuse neutralization IC90 [7]: 0.0054 µg/mL; S-Fuse IC50 [9]: 0.0242 µg/mL; IC50, S-Fuse neutralisation [10]: 0.0074 µg/mL |
| Cv2.3235 (recombinant human IgG1) (antibody, V domains shown) VH: EVQLVESGGGLIQPGGSLRLSCAASGFTVSRNYMSWVRQAPGKGLEWVSVIYSGGSTFYADSVKGRFTISRDNSKNTLYLQMNSLRAEDTAVYYCARDGDYYGMDVWGQGTTVTVSS VL: DIQMTQSPSFLSASVGDRVTITCRASQGISSFLAWYQQKPGKAPKLLIYGASTLQSGVTSRFSGSGSGTEFTLTISSLQPEDFATYYCQRLDSYPPITFGQGTRLEIKR |  |  |  |  |  |  |  |  |  |  |  |  |  |  |  |  |  |  |  |  | binding result [11]: no binding |
